Drawing on paper PMC11024254, “The DmsABC S-oxide reductase is an essential component of a novel, hypochlorite-inducible system of extracellular stress defense in Haemophilus influenzae” (Frontiers in Microbiology, 2024), this text covers Km and kcat for one substance.

Data set [1] has as its system [O-][n+]1cccnc1. Put plainly: purified protein. The following applies: purified enzyme, 0.2 mM methyl viologen, 0.3 mM dithionite, 20 mM sodium phosphate pH 6.8, 37°C.
Data set [2] relates to NC(=O)c1ccc[n+]([O-])c1. Put plainly: purified protein. The following applies: purified enzyme, 0.2 mM methyl viologen, 0.3 mM dithionite, 20 mM sodium phosphate pH 6.8, 37°C.

One may read the Km as the substrate concentration at which the rate is half of its maximum. One may read the kcat as the maximal rate divided by the concentration of active sites. As for “MtsZ (HiMtsZ) (Haemophilus influenzae Rd KW20)”, the Michaelis-Menten constant (Km) in data set [1] was 35 ± 8 µM; in data set [2], 46 ± 8 µM. Further, the catalytic constant (kcat) was 33.2 ± 2.7 s⁻¹ in data set [1] and 93 ± 5 s⁻¹ in data set [2].
